Assay results reported in article PMC6393296, “Intrinsically disordered regions regulate both catalytic and non-catalytic activities of the MutLα mismatch repair complex”.

Experiments:
[1] = target: Mlh1 (WT, FLAG);Pms1 (WT) (Saccharomyces cerevisiae (expressed in …, UniProt P38920;P14242 1-769;1-873, |)); experiment: filter binding; no nucleotide; 2 mM Mg2+; Filter binding: 20 mM Tris-HCl pH 7.5, 20 mM NaCl (25 mM in legends), 0.01 mM EDTA, 2 mM MgCl2, 40 ug/ml BSA, 0.1 mM DTT, 15 nM DNA, +/-1 mM ATP, 30 C, 10 min; conditions: protein: recombinant;recombinant; tags: FLAG inserted at position 499;; copies: 1;1; label: 5'-32P on AO3142; blunt
[2] = target: Mlh1 del348-373 (FLAG);Pms1 del584-634 (DLDnull subunit) (Saccharomyces cerevisiae (expressed in …, UniProt P38920;P14242 1-769;1-873, del348-373|del584-634)); experiment: filter binding; no nucleotide; 2 mM Mg2+; similar to WT; Filter binding: 20 mM Tris-HCl pH 7.5, 20 mM NaCl (25 mM in legends), 0.01 mM EDTA, 2 mM MgCl2, 40 ug/ml BSA, 0.1 mM DTT, 15 nM DNA, +/-1 mM ATP, 30 C, 10 min; conditions: protein: recombinant;recombinant; tags: FLAG inserted at position equivalent to 499;; copies: 1;1; label: 5'-32P on AO3142; blunt
[3] = target: Mlh1 del348-373 (FLAG);Pms1 del438-487 (DLDMMR subunit) (Saccharomyces cerevisiae (expressed in …, UniProt P38920;P14242 1-769;1-873, del348-373|del438-487)); experiment: as above; conditions: protein: recombinant;recombinant; tags: FLAG inserted at position equivalent to 499;; copies: 1;1; label: 5'-32P on AO3142; blunt

Measured: binding result

Mlh1 del348-373 (FLAG);Pms1 del584-634 (DLDnull subunit) (Saccharomyces cerevisiae, sequence (P38920 other isoform, or with tags, fused parts or gaps del348-373|del584-634, chain 1 of 2): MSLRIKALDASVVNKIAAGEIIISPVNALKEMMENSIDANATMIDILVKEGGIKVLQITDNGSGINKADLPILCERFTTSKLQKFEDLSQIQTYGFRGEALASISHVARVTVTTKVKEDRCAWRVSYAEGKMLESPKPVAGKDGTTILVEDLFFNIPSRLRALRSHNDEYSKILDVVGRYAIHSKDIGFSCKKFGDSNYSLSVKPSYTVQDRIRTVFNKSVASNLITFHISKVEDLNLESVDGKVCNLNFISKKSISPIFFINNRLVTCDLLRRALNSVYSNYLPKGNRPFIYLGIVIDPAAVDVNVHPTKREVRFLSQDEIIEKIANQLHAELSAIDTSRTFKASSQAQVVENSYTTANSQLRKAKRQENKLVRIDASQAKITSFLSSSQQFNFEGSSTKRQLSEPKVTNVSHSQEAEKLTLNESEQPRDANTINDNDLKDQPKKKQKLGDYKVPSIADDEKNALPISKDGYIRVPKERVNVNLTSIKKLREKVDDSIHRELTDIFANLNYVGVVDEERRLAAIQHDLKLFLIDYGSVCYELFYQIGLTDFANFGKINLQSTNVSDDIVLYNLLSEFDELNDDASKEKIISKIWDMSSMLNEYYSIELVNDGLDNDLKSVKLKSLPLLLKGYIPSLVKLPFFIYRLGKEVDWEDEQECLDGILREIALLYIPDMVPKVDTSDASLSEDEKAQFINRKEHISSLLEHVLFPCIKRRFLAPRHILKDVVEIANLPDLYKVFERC
Mlh1 del348-373 (FLAG);Pms1 del584-634 (DLDnull subunit) (Saccharomyces cerevisiae, sequence (P14242 other isoform, or with tags, fused parts or gaps del348-373|del584-634, chain 2 of 2): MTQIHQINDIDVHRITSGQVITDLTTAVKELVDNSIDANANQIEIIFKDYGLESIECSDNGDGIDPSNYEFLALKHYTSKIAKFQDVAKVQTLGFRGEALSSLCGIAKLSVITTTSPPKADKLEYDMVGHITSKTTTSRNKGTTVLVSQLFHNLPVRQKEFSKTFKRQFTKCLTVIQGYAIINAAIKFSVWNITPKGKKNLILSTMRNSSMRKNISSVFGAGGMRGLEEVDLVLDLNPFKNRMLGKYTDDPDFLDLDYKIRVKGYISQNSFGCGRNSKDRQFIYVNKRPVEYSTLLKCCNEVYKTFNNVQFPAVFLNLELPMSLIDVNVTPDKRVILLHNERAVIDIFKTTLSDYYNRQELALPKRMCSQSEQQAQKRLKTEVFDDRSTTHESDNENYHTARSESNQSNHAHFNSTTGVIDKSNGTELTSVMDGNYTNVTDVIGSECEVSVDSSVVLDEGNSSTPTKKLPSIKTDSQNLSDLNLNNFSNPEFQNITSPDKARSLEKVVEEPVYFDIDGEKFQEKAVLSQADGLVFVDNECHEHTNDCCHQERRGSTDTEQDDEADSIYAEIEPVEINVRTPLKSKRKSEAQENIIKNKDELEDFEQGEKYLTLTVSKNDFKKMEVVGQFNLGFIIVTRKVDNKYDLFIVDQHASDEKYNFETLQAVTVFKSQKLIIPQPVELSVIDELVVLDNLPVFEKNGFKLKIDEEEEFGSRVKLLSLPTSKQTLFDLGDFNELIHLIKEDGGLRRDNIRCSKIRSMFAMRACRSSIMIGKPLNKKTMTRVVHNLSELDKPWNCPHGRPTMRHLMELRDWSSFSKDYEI
Mlh1 del348-373 (FLAG);Pms1 del438-487 (DLDMMR subunit) (Saccharomyces cerevisiae, sequence (P38920 other isoform, or with tags, fused parts or gaps del348-373|del438-487, chain 1 of 2): as the sequence (P38920 other isoform, or with tags, fused parts or gaps del348-373|del584-634, chain 1 of 2) above
Mlh1 del348-373 (FLAG);Pms1 del438-487 (DLDMMR subunit) (Saccharomyces cerevisiae, sequence (P14242 other isoform, or with tags, fused parts or gaps del348-373|del438-487, chain 2 of 2): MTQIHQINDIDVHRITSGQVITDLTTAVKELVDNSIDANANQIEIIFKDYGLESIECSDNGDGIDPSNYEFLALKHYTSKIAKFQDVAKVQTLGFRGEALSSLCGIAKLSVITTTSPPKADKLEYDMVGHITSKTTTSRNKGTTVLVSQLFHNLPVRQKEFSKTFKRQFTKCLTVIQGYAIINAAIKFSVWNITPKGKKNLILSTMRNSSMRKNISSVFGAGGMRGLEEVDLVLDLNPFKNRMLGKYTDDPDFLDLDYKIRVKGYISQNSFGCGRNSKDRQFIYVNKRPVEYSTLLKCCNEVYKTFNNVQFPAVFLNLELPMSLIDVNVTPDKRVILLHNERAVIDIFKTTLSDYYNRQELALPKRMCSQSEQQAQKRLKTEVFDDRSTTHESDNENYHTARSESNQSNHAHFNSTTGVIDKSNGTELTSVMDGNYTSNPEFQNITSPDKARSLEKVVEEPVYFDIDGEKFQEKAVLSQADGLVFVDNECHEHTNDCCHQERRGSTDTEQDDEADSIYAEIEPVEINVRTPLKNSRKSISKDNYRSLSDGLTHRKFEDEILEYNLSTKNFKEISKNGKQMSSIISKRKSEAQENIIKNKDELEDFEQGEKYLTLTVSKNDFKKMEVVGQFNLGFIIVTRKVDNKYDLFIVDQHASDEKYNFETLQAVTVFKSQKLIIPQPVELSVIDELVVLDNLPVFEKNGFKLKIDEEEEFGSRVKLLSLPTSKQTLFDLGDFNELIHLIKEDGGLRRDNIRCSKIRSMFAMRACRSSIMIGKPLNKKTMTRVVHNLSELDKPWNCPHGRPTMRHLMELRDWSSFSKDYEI
Mlh1 (WT, FLAG);Pms1 (WT) (Saccharomyces cerevisiae, sequence (P38920 whole entry, chain 1 of 2): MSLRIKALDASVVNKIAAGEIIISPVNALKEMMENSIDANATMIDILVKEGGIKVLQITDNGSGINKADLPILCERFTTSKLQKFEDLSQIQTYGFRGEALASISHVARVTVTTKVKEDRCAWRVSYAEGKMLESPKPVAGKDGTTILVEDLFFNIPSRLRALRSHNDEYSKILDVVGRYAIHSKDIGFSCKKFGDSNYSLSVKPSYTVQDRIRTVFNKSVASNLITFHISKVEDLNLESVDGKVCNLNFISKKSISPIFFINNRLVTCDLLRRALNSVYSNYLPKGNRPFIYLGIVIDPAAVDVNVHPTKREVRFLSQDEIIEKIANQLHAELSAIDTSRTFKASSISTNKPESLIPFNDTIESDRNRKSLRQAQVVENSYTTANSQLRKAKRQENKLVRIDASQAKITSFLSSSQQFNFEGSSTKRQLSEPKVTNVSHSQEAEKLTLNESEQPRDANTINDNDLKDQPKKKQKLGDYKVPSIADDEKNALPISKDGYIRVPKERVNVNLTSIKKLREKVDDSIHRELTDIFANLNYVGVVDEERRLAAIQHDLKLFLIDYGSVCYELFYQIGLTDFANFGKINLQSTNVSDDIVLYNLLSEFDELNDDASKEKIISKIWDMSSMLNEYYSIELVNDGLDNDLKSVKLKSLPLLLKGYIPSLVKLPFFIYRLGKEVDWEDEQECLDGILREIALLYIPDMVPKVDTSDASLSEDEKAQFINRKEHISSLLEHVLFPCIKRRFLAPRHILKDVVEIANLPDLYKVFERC
Mlh1 (WT, FLAG);Pms1 (WT) (Saccharomyces cerevisiae, sequence (P14242 whole entry, chain 2 of 2): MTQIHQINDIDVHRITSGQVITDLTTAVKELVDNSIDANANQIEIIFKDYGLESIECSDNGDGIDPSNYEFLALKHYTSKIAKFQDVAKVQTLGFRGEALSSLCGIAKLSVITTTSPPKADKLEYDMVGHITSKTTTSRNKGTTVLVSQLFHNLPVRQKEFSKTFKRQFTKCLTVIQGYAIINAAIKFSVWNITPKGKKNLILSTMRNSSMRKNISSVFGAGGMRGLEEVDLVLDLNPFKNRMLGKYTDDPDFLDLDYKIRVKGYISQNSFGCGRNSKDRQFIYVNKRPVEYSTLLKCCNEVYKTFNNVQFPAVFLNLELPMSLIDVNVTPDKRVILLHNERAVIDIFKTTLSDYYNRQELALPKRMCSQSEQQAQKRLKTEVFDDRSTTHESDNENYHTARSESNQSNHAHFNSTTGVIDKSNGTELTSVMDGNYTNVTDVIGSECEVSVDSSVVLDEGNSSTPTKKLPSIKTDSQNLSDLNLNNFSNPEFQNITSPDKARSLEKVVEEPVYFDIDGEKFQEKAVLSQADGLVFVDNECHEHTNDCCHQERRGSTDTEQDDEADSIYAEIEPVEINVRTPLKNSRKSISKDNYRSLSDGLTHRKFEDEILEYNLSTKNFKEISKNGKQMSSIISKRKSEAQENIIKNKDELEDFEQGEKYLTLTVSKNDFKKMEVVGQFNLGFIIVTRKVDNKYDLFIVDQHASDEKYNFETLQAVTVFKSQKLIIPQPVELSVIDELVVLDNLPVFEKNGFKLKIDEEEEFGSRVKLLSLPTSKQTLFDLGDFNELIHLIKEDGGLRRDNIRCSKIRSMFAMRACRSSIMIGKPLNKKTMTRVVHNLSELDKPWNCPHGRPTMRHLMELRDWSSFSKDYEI

B1: 49-bp homoduplex AO3142/AO3144 (dsDNA)
DNA 1: GGGTCAACGTGGGCAAAGATGTCCTAGCAAGTCAGAATTCGGTAGCGTG
DNA 2: CACGCTACCGAATTCTGACTTGCTAGGACATCTTTGCCCACGTTGACCC
binds: [1] | [2] | [3]
